Where no end group is shown, it is not given here.
Columns and labels:
[1] = target: T1, Loop-KLK4 synthetic cyclized peptide (CGLHSLEADQEPGSCC) (human, bridge (positions not given here); also: cyclized, chemistry not given here); test: ELISA, plate coated with Loop-KLK4 peptide; target: Loop3-KLK4 peptide
T1 construct: The peptide was coupled to KLH for immunization and to BSA for the ELISA tests of sera; no carrier is stated there; also called Loop3-KLK4; KLK4-Loop3
T1 peptide: CGLHSLEADQEPGSCC
Method: (§1) ELISA binding assay: A ninety-six-well plate (Nunc) was coated with KLK4 and Loop-KLK4 at 10 µg/ml. After blocking with 2% BSA in PBS, the plate was incubated with the antibodies for 1 h at 37° C. Bound antibodies were detected by peroxidase-conjugated antibody goat anti-human (Jackson ImmunoResearch). EC₅₀ was calculated with GraphPad Prism from […] curve fitting analysis.
(§2) Interaction of KLK4 monoclonal antibody was tested by ELISA using KLK4 & KLK4-Loop3. As a control, anti-GST monoclonal antibody was used.

recombinant human KLK4 = target: T2, recombinant human KLK4 (human, UniProt Q9Y5K2 31-253); test: ELISA, plate coated with KLK4; target: full KLK4
T2 construct: also called Kallikrein-4; Full KLK4
T2 sequence (Q9Y5K2 31-253 H197Q limits assumed): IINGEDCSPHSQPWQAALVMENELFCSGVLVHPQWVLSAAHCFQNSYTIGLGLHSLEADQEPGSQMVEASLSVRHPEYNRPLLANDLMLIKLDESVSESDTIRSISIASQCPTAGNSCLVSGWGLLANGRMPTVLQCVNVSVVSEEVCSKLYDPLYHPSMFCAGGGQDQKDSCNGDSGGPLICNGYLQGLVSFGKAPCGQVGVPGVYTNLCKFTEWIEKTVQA
Method: as §1, §2

- EC50 [1]: 0.271 nM
- EC50 (recombinant human KLK4): 0.272 nM
B1: anti-KLK4 monoclonal antibody (antibody, IgG1, V domains shown)
VH: EVQLVESGGGLVQPKGSLKLSCAASGFTFKTYAMTWVRQTPGKGLEWVARIRNKNNNYATFYADSVKDRFTISRDDSQSMLYLLMNNLKTEDTAIYYCVRVNYWYFDVWGAGTTVTVSS
VL: EIVMTQSTAIMSASPGEKVTMTCRASSSVSSTYLHWYQQKSGASPKLWIYSTSNLASGVPARFSGSGSGTSYSLTVSSVEAEDAATYYCQQYSSYPLTFGGGTKLEIK
notes: Monoclonal antibody from a hybridoma of immunized balb-c mice; also called anti-KLK4 antibody
